The series can be described thus: amyloid nucleation score (Sup35N fusion, yeast selection) (log enrichment); library NNK3; higher = more nucleation; inactive = no reads after selection. A digest of the protocol:
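Output and input plasmid inserts were sequenced by Illumina after psi-negative yeast carrying Sup35N fused to peptides of 20 random codons had been induced 24 hours with 100 μM copper sulfate and grown 7 days at 30°C on medium lacking adenine and uracil. The nucleation score is the DiMSum log enrichment of output over input reads, centred on the mode score of non-aggregating sequences. Sequences with under 100 input reads were excluded.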

± gives the uncertainty stated by the source.

FTNFDNFSFYASWLCG: the amyloid nucleation score result was “inactive”.

Regarding ASVACLAFP, the amyloid nucleation score result was “inactive”.

Consider LLHTQMALGSLCVGYKIWLG, for which the amyloid nucleation score entry was “inactive”.

Take CNMRVERLMSLFSL: the amyloid nucleation score result was “inactive”.

FGGAYFVTPGAYFVWYSFLG: the amyloid nucleation score amounted to 0.222 ± 0.31.

The substance IANTHFIIM showed an amyloid nucleation score of 1.14 ± 0.13.

On to NEIFIRLLSNMKEPR, for which the amyloid nucleation score is 1.31 ± 0.14.

As to YFVFKALRSIPNGLMLSLRG, the amyloid nucleation score result was “inactive”.

CMHGRGMWMNIACAFSCRQF came in with an amyloid nucleation score of 0.063 ± 0.69.

For the substance RNCQRESGTLYNYHVARS, the amyloid nucleation score result was “inactive”.

In the case of FVYFKLGVMSPLQTTNTHLS, the amyloid nucleation score was determined as 0.804 ± 0.11.

TDHAWFWEQS: the amyloid nucleation score entry was “inactive”.

In the case of EVFSDVY, the amyloid nucleation score entry is “inactive”.

As to IFCKPWGSSFRIEPVAGTWI, the amyloid nucleation score result is “inactive”.

NMYSCNSGGHKQLCLKVGDL: the amyloid nucleation score entry was “inactive”.

For PILMISCAAGKELQLKVLWN, the amyloid nucleation score result was “inactive”.

As to WVPKFYRLGSDTWSSVSLDV, the amyloid nucleation score result was “inactive”.

On to GVGCTKSECRSICMPKHP, for which the amyloid nucleation score result is “inactive”.

Regarding IFFVTVYQTNHHKSTLRCTN, the amyloid nucleation score stood at 2.33 ± 0.087.

Regarding SIIGASLLNYF, the amyloid nucleation score result is “inactive”.

Turning to IVKTPVCSVTRRYPFSDRLL, the amyloid nucleation score result was “inactive”.

For PFGSSTRFIHVFYGAWGHSK, the amyloid nucleation score result was “inactive”.

As to PLPDRGSFFTVSNLNEWSAV, the amyloid nucleation score entry was “inactive”.

Regarding SFGLWNLRTYTAVIASSWEL, the amyloid nucleation score entry was “inactive”.

With RLKCHNNMNYSSYDLH, the amyloid nucleation score entry is “inactive”.

Turning to GARLAVW, the amyloid nucleation score entry was “inactive”.

In turn, LFHIQNESGVSYIKWFSLSI gave an amyloid nucleation score of 0.553 ± 0.27.

As to VRCYRVIMRLTFAETCQGHP, the amyloid nucleation score result was “inactive”.

Take PVPLAMYFYVALIYFDWW: the amyloid nucleation score result was “inactive”.

With ANNPLLG, the amyloid nucleation score result was “inactive”.

Take FTNISVNNAVFVFVVCTAV: the amyloid nucleation score came to 2.52 ± 0.054.

For the substance FVWLWVVISLNCSNNEFVFN, the amyloid nucleation score worked out at 2.51 ± 0.061.

As to FPYSKIRCLCDGRNDRLGGL, the amyloid nucleation score was -0.043 ± 0.67.

For the substance LHHSVG, the amyloid nucleation score result is “inactive”.

On to IREFSNI, for which the amyloid nucleation score entry was “inactive”.

On to SCLFRILMQLSTTMNSSVFK, for which the amyloid nucleation score entry was “inactive”.

In the case of IYRNKSTWWYWAWLVRNPML, the amyloid nucleation score entry is “inactive”.

Consider RACYLF, for which the amyloid nucleation score result was “inactive”.

With TQLFGGFPTEGQMMYPPRSS, the amyloid nucleation score entry was “inactive”.

Take VGLIWVVSFIDKNSYGWSGT: the amyloid nucleation score entry was “inactive”.

Turning to VLKKGGVFVWFAWECNTCSD, the amyloid nucleation score result was “inactive”.

Regarding AFSFMLACWQRRIAQALAYL, the amyloid nucleation score entry was “inactive”.

Consider FNGICRWTCYSCS, for which the amyloid nucleation score came to 2.09 ± 0.08.

Turning to NNYSPLFRTTAGYSSHFTRQ, the amyloid nucleation score entry is “inactive”.

As for RNVTRGYYMYFKRMVRHYWG, the amyloid nucleation score entry was “inactive”.

In the case of LKGVKCVHSCWELPR, the amyloid nucleation score is -0.117 ± 1.1.

Take ALSVFRGLCVLENFSKISGC: the amyloid nucleation score entry is “inactive”.

Take FFCKRFYSKFPDQWLAHSVE: the amyloid nucleation score result was “inactive”.

On to MDRIYLHISVEVSASFMSDA, for which the amyloid nucleation score result was “inactive”.

With WILYSMMQLSMMFKSMYSVT, the amyloid nucleation score entry was “inactive”.

VSEIFFADVFISWYGISRVL: the amyloid nucleation score entry is “inactive”.

For RMMCARIFRVSWLSSCLEGG, the amyloid nucleation score result is “inactive”.

Regarding DNTQLSVCWSLSPDTVWKLG, the amyloid nucleation score result was “inactive”.

In the case of DRVSFSITY, the amyloid nucleation score entry was “inactive”.

The substance HFLFSNQNIRSLNIVFNSRV gave an amyloid nucleation score of 2.2 ± 0.073.

Regarding FLLVMYT, the amyloid nucleation score worked out at 0.167 ± 0.25.

Consider CSGGGGKRGLLSTLTEPMRR, for which the amyloid nucleation score result is “inactive”.

Turning to FDLLRSNYYSFRCVCEVIDR, the amyloid nucleation score result was “inactive”.

On to KFGDPIRFWVTYYTNRSWSG, for which the amyloid nucleation score was -0.732 ± 1.4.

For the substance WISIVQW, the amyloid nucleation score entry is “inactive”.

As for YDRGLISWTCVRVSS, the amyloid nucleation score result was “inactive”.

For RSCSCLSRDKYNYLLIDSLV, the amyloid nucleation score entry is “inactive”.

On to LIQPKSR, for which the amyloid nucleation score result was “inactive”.

As for GGCHNGCGFYCRRN, the amyloid nucleation score entry is “inactive”.

Turning to HLSRNVRLS, the amyloid nucleation score result was “inactive”.

For the substance RTLLGEEWLCSVEMEVVGGQ, the amyloid nucleation score result is “inactive”.

As to GGYVDLRLMT, the amyloid nucleation score result was “inactive”.

Regarding PIVRRKSPPRHYENELRGYS, the amyloid nucleation score result was “inactive”.

As for CMVLRYVTVVSGMSQAKRMY, the amyloid nucleation score entry was “inactive”.

As to CIYWLEF, the amyloid nucleation score is 1.57 ± 0.084.

On to ACTCDRAGDRLVVWLLDGYL, for which the amyloid nucleation score entry is “inactive”.

AHCLTRGSVTPCPLGSRAVR: the amyloid nucleation score result was “inactive”.

Take DNRSL: the amyloid nucleation score is -0.501 ± 0.66.

With LFSNNNCLNIWVWLV, the amyloid nucleation score worked out at 2.19 ± 0.081.

As to RDVFINPTTGQALNVWACCR, the amyloid nucleation score result was “inactive”.

For VGSQEANLAVGI, the amyloid nucleation score result was “inactive”.

Take VMGMDIIRIPS: the amyloid nucleation score entry was “inactive”.

The substance LSYFYKVPLDTAYMW gave an amyloid nucleation score of 1.07 ± 0.12.

As to NVAAFGVAMPGMSV, the amyloid nucleation score entry is “inactive”.

Take FMEHLLYE: the amyloid nucleation score result is “inactive”.

WTNSSQHLSESLWYVDYCQG: the amyloid nucleation score entry is “inactive”.

As to AGGCDRYVHPRFLDKRSSWS, the amyloid nucleation score entry was “inactive”.

As to ISMSCNYSW, the amyloid nucleation score entry is “inactive”.

As for WRFYGYI, the amyloid nucleation score entry was “inactive”.

On to YDTLDTKCAVADKEIFCRIP, for which the amyloid nucleation score entry was “inactive”.

As for SLLNSNHHGRVMQPRRINSD, the amyloid nucleation score result was “inactive”.

IVDNYVVAALLVVLS: the amyloid nucleation score result was “inactive”.

For the substance FFVLLLFVRVYKIALNFMMG, the amyloid nucleation score result was “inactive”.

As to QGYLRKYPVTGICVIYECDG, the amyloid nucleation score entry is “inactive”.

As for VFPKSYTPDQTFPCNSSLAK, the amyloid nucleation score entry is “inactive”.

Turning to MAMDCLISTALVLLVKYASV, the amyloid nucleation score entry was “inactive”.

Consider GPILL, for which the amyloid nucleation score entry is “inactive”.

Take TFSVRLSYLSRNAICDERVL: the amyloid nucleation score was determined as 0.33 ± 0.46.

Consider WNLSSFININPSYYSDTWHG, for which the amyloid nucleation score stood at 2.08 ± 0.071.

As for ALIHFGIEVKRYICWMQNLV, the amyloid nucleation score result is “inactive”.

RKLFGSHS: the amyloid nucleation score entry is “inactive”.

LFSLIVNTRLETLEFKGQIP displayed an amyloid nucleation score of 1.02 ± 0.11.

QHNSK: the amyloid nucleation score result is “inactive”.

Regarding CGCGWVLWPYKYRSDWLGGK, the amyloid nucleation score result is “inactive”.

In the case of QCEAGSGIIAVLHY, the amyloid nucleation score entry was “inactive”.

For the substance SVSEFSFGSKCIVRRLGI, the amyloid nucleation score result is “inactive”.

In the case of VLLIWIIVPTWF, the amyloid nucleation score was determined as 0.5 ± 0.14.

LSLHEGWSVNCVFCLLLTVW came in with an amyloid nucleation score of 2.42 ± 0.077.

As for SRHFTIEVSQFCIISQGVNL, the amyloid nucleation score entry was “inactive”.

As for VDISFVSAWKDLLLGRLVCD, the amyloid nucleation score result was “inactive”.

As for ISIETGWRNHFTSVPACMLH, the amyloid nucleation score entry is “inactive”.

As for TRICMCFEFVNTSY, the amyloid nucleation score entry is “inactive”.

For the substance NWSSH, the amyloid nucleation score result is “inactive”.

Consider ARSDGA, for which the amyloid nucleation score entry is “inactive”.

On to LPCPACKVLNDKNSSKCENY, for which the amyloid nucleation score entry is “inactive”.

For SLRSCGSGLRSYRAVKTLPG, the amyloid nucleation score result is “inactive”.

Consider LMQFLAQLTSLSLSLLEVIW, for which the amyloid nucleation score result is “inactive”.

As to MVCLDWVPSNVMTLGS, the amyloid nucleation score result was “inactive”.

In the case of SVIGTSTSFCLHWLWGWALC, the amyloid nucleation score result was “inactive”.

Turning to WIMISKSSMPMTPDAVQAMG, the amyloid nucleation score result was “inactive”.

Turning to TVTCANSCLCRLSRMSCVVL, the amyloid nucleation score result is “inactive”.

On to RLMVL, for which the amyloid nucleation score result is “inactive”.

Regarding NSTDRMTASS, the amyloid nucleation score result was “inactive”.

On to VGLWVAYYGRETNRVDNYVT, for which the amyloid nucleation score entry was “inactive”.

On to MYWTNRHLQNIFWVKRNCGM, for which the amyloid nucleation score entry is “inactive”.

Take IRSKCR: the amyloid nucleation score result was “inactive”.

Consider VNRFVDTVGKGRITIIGCEH, for which the amyloid nucleation score result was “inactive”.

Take LRIGNVVCLKLSFSFNRYLW: the amyloid nucleation score is 0.352 ± 0.75.

Regarding MTCSQSECARVIVSRCHVWP, the amyloid nucleation score entry is “inactive”.

For the substance VYNVTITNYRNLPAM, the amyloid nucleation score stood at 2.24 ± 0.088.

Consider GSVRNSDKKWVPIVVYIPLQ, for which the amyloid nucleation score entry is “inactive”.

For NIPPLTLLAVVGS, the amyloid nucleation score entry is “inactive”.

In the case of LYFNRRWWPMRWVRDSPRPS, the amyloid nucleation score stood at 0.024 ± 0.96.

On to QILGTQAGYYCSREGFANL, for which the amyloid nucleation score result was “inactive”.

For the substance IDVYRFRKGA, the amyloid nucleation score result was “inactive”.

For PRTCMATSGPSGGHKSLFGF, the amyloid nucleation score result is “inactive”.

NGNFSVRFSVKS: the amyloid nucleation score entry is “inactive”.

The values above are taken from the supplement of paper PMC12042874.
